This is an account of results in patent US20240182582A1.

For experiment [1], the target named is NKG2d (NKG2-D type II integral membrane protein) on NKL cells / NK cells (human) (UniProt P26718). As to the kind of experiment: flow cytometry on NKL cells, secondary antibody alone without primary antibody (background control), column 6 nM. A general note: A flow cytometer gives signals particle by particle.
For experiment [2] the target is unchanged. As to the kind of experiment: flow cytometry on NKL cells, secondary antibody alone without primary antibody (background control), column 0.6 nM.
Experiment [3] has the same target. As to the kind of experiment: flow cytometry on NKL cells, secondary antibody alone without primary antibody (background control), column 60 nM.

NKG2d (NKG2-D type II integral membrane protein) on NKL cells / NK cells (human), sequence (P26718 whole entry): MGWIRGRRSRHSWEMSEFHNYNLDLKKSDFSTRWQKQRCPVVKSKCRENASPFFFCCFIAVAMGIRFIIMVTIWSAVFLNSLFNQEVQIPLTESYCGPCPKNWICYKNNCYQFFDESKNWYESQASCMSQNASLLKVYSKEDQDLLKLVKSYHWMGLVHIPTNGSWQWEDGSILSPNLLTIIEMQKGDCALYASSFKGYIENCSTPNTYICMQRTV

Take “secondary antibody only (Goat anti hu-Fc AF647)”: the geomean fluorescence in experiment [1] is 115; in experiment [2], 92.6; in experiment [3], 63.8.
